T1: Human BCMA Protein, Fc Tag (R&D Systems, Cat#193-BC-050) (human, UniProt Q02223 1-54)
T1 construct: Bought reagent; also called Human BCMA-Fc; BCMA-Fc
T1 sequence (looked up): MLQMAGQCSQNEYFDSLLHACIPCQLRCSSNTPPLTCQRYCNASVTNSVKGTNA

T2: CD20 on stable transfectant line 293-CD20 (UniProt P11836 1-297)
T2 construct: whole, on cells; also called CD20 expressing 293 cells
T2 sequence (looked up): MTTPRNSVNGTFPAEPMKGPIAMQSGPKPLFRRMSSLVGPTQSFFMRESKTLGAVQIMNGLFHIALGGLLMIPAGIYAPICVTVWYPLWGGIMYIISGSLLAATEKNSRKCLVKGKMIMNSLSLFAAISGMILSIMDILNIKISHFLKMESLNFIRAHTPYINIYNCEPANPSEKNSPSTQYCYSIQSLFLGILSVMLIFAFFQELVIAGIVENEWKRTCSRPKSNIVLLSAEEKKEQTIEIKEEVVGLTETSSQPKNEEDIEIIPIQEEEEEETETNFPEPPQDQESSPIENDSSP

B1: CD19-D1+2-C11D5.3 scFv (VH/VL) (construct #92) (other)
chain: PEEPLVVKVEEGDNAVLQCLKGTSDGPTQQLTWSRESPLKPFLKLSLGLPGLGIHMRPLAIWLFIFNVSQQMGGFYLCQPGPPSEKAWQPGWTVNVEGSGELFRWNVSDLGGLGCGLKNRSSEGPSSPSGKLMSPKLYVWAKDRPEIWEGEPPCLPPRDSLNQSLSQDLTMAPGSTLWLSCGVPPDSVSRGPLSWTHVHPKGPKSLLSLELKDDRPARDMWVMETGLLLPRATAQDAGKYYCHRGNLTMSFHLEITARPGGGGSGGGGSGGGGSGGGGSQIQLVQSGPELKKPGETVKISCKASGYTFTDYSINWVKRAPGKGLKWMGWINTETREPAYAYDFRGRFAFSLETSASTAYLQINNLKYEDTATYFCALDYSYAMDYWGQGTSVTVSSGSTSGSGKPGSGEGSTKGDIVLTQSPPSLAMSLGKRATISCRASESVTILGSHLIHWYQQKPGQPPTLLIQLASNVQTGVPARFSGSGSRTDFTLTIDPVEEDDVAVYYCLQSRTIPRTFGGGTKLEIKGGGGSGGGGSGGGGSHHHHHH
notes: C-terminal His tag
B2: CD19-D1+2-Leu16 scFv (VL/VH) (construct #85) (other)
chain: PEEPLVVKVEEGDNAVLQCLKGTSDGPTQQLTWSRESPLKPFLKLSLGLPGLGIHMRPLAIWLFIFNVSQQMGGFYLCQPGPPSEKAWQPGWTVNVEGSGELFRWNVSDLGGLGCGLKNRSSEGPSSPSGKLMSPKLYVWAKDRPEIWEGEPPCLPPRDSLNQSLSQDLTMAPGSTLWLSCGVPPDSVSRGPLSWTHVHPKGPKSLLSLELKDDRPARDMWVMETGLLLPRATAQDAGKYYCHRGNLTMSFHLEITARPGGGGSGGGGSGGGGSGGGGSDIELTQSPTILSASPGEKVTMTCRASSSVNYMDWYQKKPGSSPKPWIYATSNLASGVPARFSGSGSGTSYSLTISRVEAEDAATYYCQQWSFNPPTFGGGTKLEIKRGGGGSGGGGSGGGGSMAQVKLQESGAELVKPGASVKMSCKASGYTFTSYNMHWVKQTPGQGLEWIGAIYPGNGDTSYNQKFKGKATLTADKSSSTAYMQLSSLTSEDSADYYCARSNYYGSSYWFFDVWGQGTTVTVSSAAAHHHHHH
notes: C-terminal His tag
B3: CD19-D1+2-Leu16 scFv (VH/VL) (construct #83) (other)
chain: PEEPLVVKVEEGDNAVLQCLKGTSDGPTQQLTWSRESPLKPFLKLSLGLPGLGIHMRPLAIWLFIFNVSQQMGGFYLCQPGPPSEKAWQPGWTVNVEGSGELFRWNVSDLGGLGCGLKNRSSEGPSSPSGKLMSPKLYVWAKDRPEIWEGEPPCLPPRDSLNQSLSQDLTMAPGSTLWLSCGVPPDSVSRGPLSWTHVHPKGPKSLLSLELKDDRPARDMWVMETGLLLPRATAQDAGKYYCHRGNLTMSFHLEITARPGGGGSGGGGSGGGGSGGGGSMAQVKLQESGAELVKPGASVKMSCKASGYTFTSYNMHWVKQTPGQGLEWIGAIYPGNGDTSYNQKFKGKATLTADKSSSTAYMQLSSLTSEDSADYYCARSNYYGSSYWFFDVWGQGTTVTVSSGGGGSGGGGSGGGGSDIELTQSPTILSASPGEKVTMTCRASSSVNYMDWYQKKPGSSPKPWIYATSNLASGVPARFSGSGSGTSYSLTISRVEAEDAATYYCQQWSFNPPTFGGGTKLEIKRAAAHHHHHH
notes: C-terminal His tag
B4: C11D5.3 scFv (VL/VH) (construct #89) (scFv)
scFv: DIVLTQSPPSLAMSLGKRATISCRASESVTILGSHLIHWYQQKPGQPPTLLIQLASNVQTGVPARFSGSGSRTDFTLTIDPVEEDDVAVYYCLQSRTIPRTFGGGTKLEIKGSTSGSGKPGSGEGSTKGQIQLVQSGPELKKPGETVKISCKASGYTFTDYSINWVKRAPGKGLKWMGWINTETREPAYAYDFRGRFAFSLETSASTAYLQINNLKYEDTATYFCALDYSYAMDYWGQGTSVTVSSGGGGSGGGGSGGGGSHHHHHH
notes: C-terminal His tag
B5: C11D5.3 scFv (VH/VL) (construct #90) (scFv)
scFv: QIQLVQSGPELKKPGETVKISCKASGYTFTDYSINWVKRAPGKGLKWMGWINTETREPAYAYDFRGRFAFSLETSASTAYLQINNLKYEDTATYFCALDYSYAMDYWGQGTSVTVSSGSTSGSGKPGSGEGSTKGDIVLTQSPPSLAMSLGKRATISCRASESVTILGSHLIHWYQQKPGQPPTLLIQLASNVQTGVPARFSGSGSRTDFTLTIDPVEEDDVAVYYCLQSRTIPRTFGGGTKLEIKGGGGSGGGGSGGGGSHHHHHH
notes: C-terminal His tag
B6: anti-FMC63 antibody 136.20.1 (constructs #151/#152) (antibody, V domains shown)
VH: EVKLVESGGGLVQPGGSLKLSCAASGFDFSRYWMSWVRQAPGKGLEWIGEINLDSSTINYTPSLKDKFIISRDNAKNTLYLQMSKVRSEDTALYYCARRYDAMDYWGQGTSVTVSS
VL: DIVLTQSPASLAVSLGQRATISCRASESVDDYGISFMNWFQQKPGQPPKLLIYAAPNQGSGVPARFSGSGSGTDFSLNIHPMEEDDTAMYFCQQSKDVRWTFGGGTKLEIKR
notes: supernatant or purified protein (5 ug/ml); also called anti-FMC63 (anti-Id) antibody; secreted anti-FMC63 antibody
B7: CD19-D1+2-C11D5.3 scFv (VL/VH) (construct #91) (other)
chain: PEEPLVVKVEEGDNAVLQCLKGTSDGPTQQLTWSRESPLKPFLKLSLGLPGLGIHMRPLAIWLFIFNVSQQMGGFYLCQPGPPSEKAWQPGWTVNVEGSGELFRWNVSDLGGLGCGLKNRSSEGPSSPSGKLMSPKLYVWAKDRPEIWEGEPPCLPPRDSLNQSLSQDLTMAPGSTLWLSCGVPPDSVSRGPLSWTHVHPKGPKSLLSLELKDDRPARDMWVMETGLLLPRATAQDAGKYYCHRGNLTMSFHLEITARPGGGGSGGGGSGGGGSGGGGSDIVLTQSPPSLAMSLGKRATISCRASESVTILGSHLIHWYQQKPGQPPTLLIQLASNVQTGVPARFSGSGSRTDFTLTIDPVEEDDVAVYYCLQSRTIPRTFGGGTKLEIKGSTSGSGKPGSGEGSTKGQIQLVQSGPELKKPGETVKISCKASGYTFTDYSINWVKRAPGKGLKWMGWINTETREPAYAYDFRGRFAFSLETSASTAYLQINNLKYEDTATYFCALDYSYAMDYWGQGTSVTVSSGGGGSGGGGSGGGGSHHHHHH
notes: C-terminal His tag
B8: CD19-ECD-Leu16 scFv (VH/VL) (construct #63) (other)
chain: PEEPLVVKVEEGDNAVLQCLKGTSDGPTQQLTWSRESPLKPFLKLSLGLPGLGIHMRPLAIWLFIFNVSQQMGGFYLCQPGPPSEKAWQPGWTVNVEGSGELFRWNVSDLGGLGCGLKNRSSEGPSSPSGKLMSPKLYVWAKDRPEIWEGEPPCLPPRDSLNQSLSQDLTMAPGSTLWLSCGVPPDSVSRGPLSWTHVHPKGPKSLLSLELKDDRPARDMWVMETGLLLPRATAQDAGKYYCHRGNLTMSFHLEITARPVLWHWLLRTGGWKGGGGSGGGGSGGGGSGGGGSEVQLQQSGAELVKPGASVKMSCKASGYTFTSYNMHWVKQTPGQGLEWIGAIYPGNGDTSYNQKFKGKATLTADKSSSTAYMQLSSLTSEDSADYYCARSNYYGSSYWFFDVWGAGTTVTVSSGSTSGGGSGGGSGGGGSSDIVLTQSPAILSASPGEKVTMTCRASSSVNYMDWYQKKPGSSPKPWIYATSNLASGVPARFSGSGSGTSYSLTISRVEAEDAATYYCQQWSFNPPTFGGGTKLEIKHHHHHH
notes: C-terminal His tag; also called CD19 full-length extracellular domain-anti-CD20 Leu16 scFv VH-VL-His fusion protein

Assays:
[1] = biological target: T1, Human BCMA Protein, Fc Tag (R&D …); assay: ELISA, plate-bound Human BCMA-Fc (FIG. 66A), anti-HIS-HRP
Description: The plates were then blocked with 0.3% nonfat dry milk (NFD) in TBS (200 μl/well) for 1 hr at RT. Plates were then washed 3× with wash buffer (1× TBST: 0.1 M Tris, 0.5 M NaCl, 0.05% Tween20). Titrations were performed from undiluted cell culture supernatant or purified protein at 1.0 μg/ml with serial 3× dilutions, 100 μl per well and incubate for 1 h at RT. Dilution buffer is 1% BSA in lx TBS (0.1 M Tris, 0.5 M NaCl) followed by washing 3x with wash buffer. […] HRP-conjugated reagents were added at 1:2000, applied 100 μl per well, incubated at RT in dark for 1 hr. […] Plates were read at 405 nm when color had developed.

[2] = biological target: T2, CD20 on stable transfectant line …; assay: flow cytometry, 293-CD20 cells, FMC63-PE
Description: (§1) If necessary, cells to be analyzed were detached with 0.5 mM EDTA in PBS followed by washing 2x with ice cold FACS buffer (1% BSA+0.1% Sodium Azide in PBS). Cells were resuspended in FACS buffer (5×10⁵/100 μl/test). Purified protein (up to 10 μg/ml as the final concentration), or 200 μl supernatant, was added to cells suspended in 100 μl FACS buffer followed by incubation at 4° C. for 30 minutes. After washing 2× with ice cold FACS buffer, cells were resuspended in FACS buffer (5×10⁵/100 μl/test) and incubated with detection antibody in FACS buffer at 4° C. for 30 minutes. If a secondary antibody was needed, cells were washed and the secondary antibody added at the desired concentration for 30 minutes at 4° C., for the detection step. Samples were then washed 2× with ice cold FACS buffer, cells were fixed with 2% paraformadehyde in PBS, and analyzed on the Accuri Flow Cytometer (BD Biosciences).

[3] = biological target: T2, CD20 on stable transfectant line …; assay: flow cytometry, 293-CD20 cells, FMC63-PE or anti-HIS-PE
Description: as §1

[4] = biological target: T3, FMC63 CAR-Flag (construct #140) on transfected 293T cells; assay: flow cytometry, 293T cells transfected with #140, supernatant or 5 ug/ml purified #151/#152, anti-mouse Fc gamma-PE
T3 construct: FMC63 VL-VH-Flag-CD28 linker/transmembrane/ICD-4-1BB ICD-CD3z ICD; also called anti-CD19 FMC63 CAR; CAR19
T3 sequence (chain, as listed by the source limits assumed): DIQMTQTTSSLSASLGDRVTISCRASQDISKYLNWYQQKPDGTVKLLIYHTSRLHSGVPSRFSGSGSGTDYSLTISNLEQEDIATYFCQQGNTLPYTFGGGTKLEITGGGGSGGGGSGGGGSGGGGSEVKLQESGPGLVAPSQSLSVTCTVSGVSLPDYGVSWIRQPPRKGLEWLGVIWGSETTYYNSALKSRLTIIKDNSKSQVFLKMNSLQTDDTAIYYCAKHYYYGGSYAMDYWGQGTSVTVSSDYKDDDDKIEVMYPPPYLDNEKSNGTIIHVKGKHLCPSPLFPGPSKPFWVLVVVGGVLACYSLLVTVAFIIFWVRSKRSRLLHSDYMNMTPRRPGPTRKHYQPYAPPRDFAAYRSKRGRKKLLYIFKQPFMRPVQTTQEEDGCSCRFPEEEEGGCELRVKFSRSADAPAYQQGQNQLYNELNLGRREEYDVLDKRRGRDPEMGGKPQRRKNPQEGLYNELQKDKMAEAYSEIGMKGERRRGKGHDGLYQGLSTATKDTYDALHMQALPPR
Description: This was followed by another incubation with anti-mouse Fc gamma-PE for 30 min at 4° C. Cells were spun and washed as above, and fixed with 1% PFA in PBS. Fixed cells were analyzed on Accuri 6 for CAR expression binding (PE positive).

[5] = biological target: T2, CD20 on stable transfectant line …; assay: flow cytometry, 293-CD20 cells, 200 µl fusion protein, FMC63-PE
Description: as §1

Binder | binding result [1] | also measured
B1 | binds | 
B2 |  | binding result [2]: no binding (tested: 200 µl)
B3 |  | binding result [3]: binds
B4 | binds | 
B5 | binds | 
B6 |  | binding result [4]: binds
B7 | binds | 
B8 |  | binding result [5]: binds
